According to PMC5752578 (Structure (London, England : 1993), 2017):

T1: Grp1 63-399 E161A part of the Grp1 63-399 E161A Arf6 Q67L fusion (mouse, UniProt O08967 63-399, E161A)
T1 sequence (looked up): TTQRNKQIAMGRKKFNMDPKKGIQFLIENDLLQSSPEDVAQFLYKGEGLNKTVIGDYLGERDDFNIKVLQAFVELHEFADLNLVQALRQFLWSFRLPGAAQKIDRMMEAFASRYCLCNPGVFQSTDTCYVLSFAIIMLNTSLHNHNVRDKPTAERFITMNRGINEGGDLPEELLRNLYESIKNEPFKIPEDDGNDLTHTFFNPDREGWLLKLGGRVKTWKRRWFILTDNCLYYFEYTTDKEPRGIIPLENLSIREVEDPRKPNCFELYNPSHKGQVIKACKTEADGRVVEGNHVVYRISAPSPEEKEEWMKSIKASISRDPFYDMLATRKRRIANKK


What was measured:
[1] = molecular target: T1, Grp1 63-399 E161A part of the Grp1 …; test: SEC-SAXS
SEC-SAXS = molecular target: the molecule itself; test: SEC-SAXS

binding result [1] | Binder | stoichiometry N (SEC-SAXS)
binds | Arf6 Q67L part of the Grp1-Arf6 fusion constructs, loaded with GppNHp (natural protein, human) GKVLSKIFGNKEMRILMLGLDAAGKTTILYKLKLGQSVTTIPTVGFNVETVTYKNVKFNVWDVGGLDKIRPLWRHYYTGTQGLIFVVDCADRDRIDEARQELHRIINDREMRDAIILIFANKQDLPDAMKPHEIQEKLGLTRIRDRNWYVQPSCATSGDGLYEGLTWLTSNYK | 
 | Grp1_(63-390) (mouse Grp1, diglycine splice variant, residues 63-390; fully active, lacking the polybasic region) (domain or fragment, UniProt O08967 63-390, looked up) TTQRNKQIAMGRKKFNMDPKKGIQFLIENDLLQSSPEDVAQFLYKGEGLNKTVIGDYLGERDDFNIKVLQAFVELHEFADLNLVQALRQFLWSFRLPGEAQKIDRMMEAFASRYCLCNPGVFQSTDTCYVLSFAIIMLNTSLHNHNVRDKPTAERFITMNRGINEGGDLPEELLRNLYESIKNEPFKIPEDDGNDLTHTFFNPDREGWLLKLGGRVKTWKRRWFILTDNCLYYFEYTTDKEPRGIIPLENLSIREVEDPRKPNCFELYNPSHKGQVIKACKTEADGRVVEGNHVVYRISAPSPEEKEEWMKSIKASISRDPFYDMLAT | 2
